Legend:
[1] = tested on: MDA-MB-435 tumor xenografts; format: in vivo, mouse
Description: At 4 h, kidney and bladder were not visualized likely due to voiding of urine. It is possible that the presence of urine radioactivity in kidney and bladder, at the early time intervals, could have contributed to an overestimation of tissue radioactivity uptake in these organs in the images. […] Intestinal radioactivity was clearly apparent in the 4 h images, which is most likely due to a shift in radioactivity clearance from the renal to hepatobiliary excretion pathway at later time intervals.
Mouse SPECT/CT imaging studies were performed on a GMI Tri-Modality CT/PET/SPECT small animal scanner (Gamma-Medica Ideas, Inc., Northridge, CA). SPECT images were acquired using a dual-head, high-resolution, low-energy parallel-hole collimator. CT imaging of animals was performed for anatomical co-registration and CT fusion of SPECT images were performed using AMIRA (version 3.1) software (Visage Imaging, San Diego, CA USA). Imaging was performed when tumors reached a 60–100 mm^3 average volume.

[2] = tested on: MDA-MB-435 tumor-bearing athymic nude mice; details: mouse, in vivo, iv
Description: Kidney uptake of radioactivity (5.68%ID/g and 10.8% ID/g at 5 and 30 min respectively post-injection) was the highest among all sampled tissues confirming that renal elimination is the major excretory pathway for the radioligand (Table S1). In tumors, radioactivity levels peaked at 30 min post-injection (1.05% ID/g).
(A) Tissue distribution at 60 min post injection and reported as percent injected dose per gram of tissue (%ID/g). (B) and (C) represent the ratio of radioactivity in tumor to blood and tumor to muscle respectively at various time intervals. All the data are computed as mean +/− SEM.
Female CD-1 nude mice (nu/nu, 25–28 g) bearing MDA-MB-435 mammary fat pad tumor xenografts on opposite sides were utilized for the biodistribution studies. Four animals (N = 4) were used per time point. […] Selected tissues (blood, heart, liver, lung, spleen, adrenals, tumor, kidney, muscle, whole brain and thyroid) were harvested and tissue samples were assayed for activity using a Gamma Counter. Tissue uptake was computed as % injected dose/gram (%ID/g).
All the data are computed as mean +/− SEM. (DOCX) Click here for additional data file.

[3] = tested on: tumor-bearing athymic nude mice; details: mouse, in vivo, iv
Description: The remaining radioactivity consisted primarily of two hydrophobic radiometabolites representing 47% and 18% of the total plasma radioactivity. […] In contrast, the parent radioligand accounted for 42% of the total radioactivity present in mouse urine samples at this time interval. The remaining radioactivity consisted of three major hydrophobic radiometabolites representing 28%, 6.8% and 10% of the total. […] This is possibly due to its high in vivo tumor affinity which results in its rapid sequestration and retention within the tumor cells in a nucleolin dependent manner.
Blood and urine samples were collected, centrifuged at 12,000 rpm for 15 min, and the supernatants transferred to a fresh centrifuge tube and the centrifugation repeated. The supernatants were treated with CH3CN and centrifuged again to precipitate proteins and the clear supernatants analyzed by radio-HPLC (Method I).

[4] = Storage stability of formulated radioligand (radio-HPLC); format: physicochemical; details: formulated in PBS:EtOH [95:5], stored at 5°C, radio-HPLC analysis
Description: The 3-(tri-n-butylstannyl)[…] analog 8 was obtained from the N-succinimidyl-3-(tri-n-butylstannyl)benzoate analog 7 using the approach described for the synthesis of 5 (Scheme A). […] The radioiodinated product was well resolved from the tri-n-butylstannyl starting material (Rt>25 min) under the HPLC conditions. […] The radioligand which was formulated in PBS∶EtOH [95∶5] was stable for at least 1 week when stored at 5°C (<2% radiolytic decomposition by radio-HPLC analysis).

N-(2-{3-[^125I]Iodobenzoyl}aminoethyl)maleimide-F3Cys peptide [[^125I]IBMF3]
Tumor uptake in SPECT images, early ([1]; 15 min post-injection, i.v. 570–610 µCi, MDA-MB-435 xenografts): distinct uptake of radioactivity in tumor as early as 15 min post-injection | Tumor visualization in SPECT images at 4 h ([1]; 4 h post-injection, i.v. 570–610 µCi, MDA-MB-435 xenografts): visualized in the SPECT images at 4 h although at lower levels | Tumor radioactivity in SPECT images at later time intervals ([1]; >4 h post-injection, i.v., MDA-MB-435 xenografts): substantial clearance at later time intervals | Thyroid uptake in SPECT images (in vivo deiodination) ([1]; mouse, in vivo, iv): Moderate radioactivity uptake was seen in thyroid | Extraction into brain [2]: 0.03 %ID/g | Radioactivity clearance from blood [2]: > 60% | Tumor-to-blood ratio [2]: 2.1 | Tumor-to-muscle ratio [2]: 4.3 | Hydrophobic radiometabolite (first named), share of total plasma radioactivity [3]: 47% | Hydrophobic radiometabolite (first named), share of total urine radioactivity [3]: 28% | Hydrophobic radiometabolite (second named), share of total plasma radioactivity [3]: 18% | Hydrophobic radiometabolite (second named), share of total urine radioactivity [3]: 6.8% | Hydrophobic radiometabolite (third named), share of total urine radioactivity [3]: 10% | Parent radioligand, share of total urine radioactivity [3]: 42% | Radiolytic decomposition on storage ([4]; 1 week): < 2% | Time stable on storage [4]: at least 1 week
